Consider two molecules from US20210198347A1 (Chugai, published 2021).

In test [1] the target is T1, recombinant human C1s CCP1-CCP2-SP-His (human, UniProt P09871 292-688).
T1 construct: Truncated protein lacking the CUB1-EGF-CUB2 domain; also called human C1s CCP1-CCP2-SP M292-D688
T1 sequence: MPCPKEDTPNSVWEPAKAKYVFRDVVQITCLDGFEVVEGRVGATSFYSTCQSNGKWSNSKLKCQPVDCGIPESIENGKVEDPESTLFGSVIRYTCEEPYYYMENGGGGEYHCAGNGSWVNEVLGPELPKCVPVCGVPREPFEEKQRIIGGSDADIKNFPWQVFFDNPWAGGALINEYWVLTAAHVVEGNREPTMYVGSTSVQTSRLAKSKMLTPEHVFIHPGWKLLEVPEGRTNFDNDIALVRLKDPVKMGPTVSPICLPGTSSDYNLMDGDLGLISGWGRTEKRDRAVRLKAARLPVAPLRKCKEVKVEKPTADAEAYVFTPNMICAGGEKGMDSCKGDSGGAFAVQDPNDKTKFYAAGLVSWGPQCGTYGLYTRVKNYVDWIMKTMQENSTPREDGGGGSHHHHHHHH
Put plainly: SPR (BIACORE T200, 37 degrees C, pH 7.4, 1.2 mM CaCl2), antibody captured by protein A/G.

Test [2] addresses T2, Native proenzyme human C1s (Comptech A103) (human, UniProt P09871 16-688).
T2 construct: mature; Bought native protein; also called native human C1s Proenzyme; native human C1s proenzyme protein (CompTech)
T2 sequence (looked up): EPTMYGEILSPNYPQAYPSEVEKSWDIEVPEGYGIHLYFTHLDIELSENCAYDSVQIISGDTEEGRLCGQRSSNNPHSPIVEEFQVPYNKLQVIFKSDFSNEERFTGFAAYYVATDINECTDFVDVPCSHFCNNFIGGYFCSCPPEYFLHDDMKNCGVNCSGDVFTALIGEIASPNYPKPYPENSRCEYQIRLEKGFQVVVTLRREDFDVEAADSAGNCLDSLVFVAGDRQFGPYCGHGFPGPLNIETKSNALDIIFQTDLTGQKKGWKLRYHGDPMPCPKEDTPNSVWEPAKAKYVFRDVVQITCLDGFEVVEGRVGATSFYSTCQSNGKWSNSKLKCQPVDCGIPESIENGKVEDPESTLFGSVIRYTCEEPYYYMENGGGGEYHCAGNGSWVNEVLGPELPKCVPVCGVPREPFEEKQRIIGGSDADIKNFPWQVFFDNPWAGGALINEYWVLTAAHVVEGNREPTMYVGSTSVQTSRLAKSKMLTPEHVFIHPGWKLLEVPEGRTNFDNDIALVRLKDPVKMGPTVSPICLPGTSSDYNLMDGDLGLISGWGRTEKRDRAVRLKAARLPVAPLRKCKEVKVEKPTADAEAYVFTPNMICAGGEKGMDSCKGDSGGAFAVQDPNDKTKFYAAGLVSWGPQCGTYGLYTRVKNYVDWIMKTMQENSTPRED
Put plainly: SPR (BIACORE T200, 37 degrees C, pH 7.4), antibody captured by protein A/G, C1s 50 nM. The method, then: The binding specificities of the six C1s CUB1-EGF-CUB2 binders were determined at 37 degrees C. using BIACORE® T200 instrument (GE Healthcare). Recombinant Protein A/G (Pierce) was immobilized onto all flow cells of a CM4 sensor chip using an amine coupling kit (GE Healthcare). Antibodies and analytes were prepared in 7(+) buffer (20 mM ACES, 150 mM NaCl, 1.2 mM CaCl₂, 0.05% Tween 20, 0.005% NaN₃, pH 7.4). Each antibody was captured onto the sensor surface by protein A/G. Antibody capture levels were aimed at 100 resonance unit (RU). Native proenzyme human C1s (Comptech A103) (at 50 nM as a monomer) or recombinant human C1s CCP1-CCP2-SP-His (at 100 nM as a monomer) was injected, followed by dissociation. Sensor surface was regenerated each cycle with 10 mM Glycine-HCl pH 1.5. The six C1s CUB1-EGF-CUB2 binders bound to the native proenzyme human C1s, but not recombinant human C1s CCP1-CCP2-SP-His, which is a truncated protein lacking the CUB1-EGF-CUB2 domain.
(SPR reads the build-up and loss of mass on a sensor chip optically.)

B1: COS0637cc-SG1148 (antibody, human IgG1, kappa, V domains shown)
VH: QSLEESGGRLVTPGTPLTLTCTASGFSLSAYAMNWVRQAPGKGLEWIGLIYGSGSTFYASWAKGRFTISKTSTTVDLKMTSLTTEDTATYFCARGRSVNYNSDFKLWGPGTLVTVSS
VL: QVLTQTPSSVSAAVGGTVTINCQASQSLHDKKNLAWYQHKPGQRPNLLIYGASTLESGVPSRFKGSGSGTEYTLTISDLECDDAAAYYCQGEFSCSSADCNTFGGGTKVEIKR
As for B1, the results for the binding result in test [1] and in test [2] were “no binding (tested: 100 nM)” and “binds”, respectively.

B2: COS0631gg-SG1148 (antibody, human IgG1, kappa, V domains shown)
VH: QSVEESGGRLVTPGTPLTLTCTVSGFSLSRYSMGWVRQAPGKGLEWIGIIYADGGAYYASWAKGRFTISKTSTTMDLKVTSPTTEDTATYFCARGQFINSNEFFNPWGPGTLVTVSS
VL: QVLTQTASSVSAVVGGTVTINCQASQSLHNNKNLAWYQQKPGQPPRLLIYYASTLASGVSSRFKGSGSGTQFTLTISDLECDDAATYYCAGEFSCSNGDCNAFGGGTKVEIKR
For B2, the binding result in test [1] was “no binding (tested: 100 nM)”; in test [2], “binds”.
